From the Human Domainome abundance scans (Beltran et al. 2025)
± gives the uncertainty stated by the source.

B1: Integrator complex subunit 12, residues 155 to 213; numbered along this chain, Q96CB8 (parent)
chain: AMEMGLACVVCRQMMVASGNQLVECQECHNLYHRDCHKPQVTDKEANDPRLVWYCARCT

Variants of: B1
Assay: abundance fitness (aPCA) (normalised: wild type 0, dead -1); higher = more abundant; growth selection in yeast, the domain comes from the species named
Details: Homo sapiens

Variant	abundance fitness
K38D	0.081 ± 0.074
K38P	-0.309 ± 0.05
K38Q	-0.015 ± 0.054
K38V	0.035 ± 0.046
K38L	-0.096 ± 0.041
K38C	-0.089 ± 0.077
K38G	-0.15 ± 0.05
K38E	0.008 ± 0.046
K38W	-0.341 ± 0.055
K38T	0.011 ± 0.045
K38Y	-0.134 ± 0.071
K38M	-0.05 ± 0.049
K38N	-0.209 ± 0.085
K38F	-0.139 ± 0.073
K38R	-0.028 ± 0.04
K38S	0.016 ± 0.041
K44P	-0.076 ± 0.054
K44W	-0.306 ± 0.067
K44G	0.023 ± 0.04
K44D	0.078 ± 0.059
K44Q	-0.081 ± 0.072
K44R	-0.042 ± 0.043
K44E	0.042 ± 0.052
K44F	-0.139 ± 0.073

Variant	abundance fitness
K44A	0.008 ± 0.046
K44S	-0.074 ± 0.046
K44L	-0.121 ± 0.049
K44N	0.119 ± 0.12
K44M	-0.036 ± 0.05
K44Y	-0.486 ± 0.07
K44V	-0.038 ± 0.045
K44C	0.059 ± 0.11
K44T	0.043 ± 0.048
K44I	0.024 ± 0.082
K44H	-0.124 ± 0.079
L31N	0.027 ± 0.036
L31Q	0.084 ± 0.07
L31T	0.055 ± 0.039
L31G	-0.048 ± 0.03
L31P	-0.164 ± 0.052
L31C	0.047 ± 0.035
L31K	0.103 ± 0.055
L31A	0.04 ± 0.033
L31W	0.101 ± 0.049
L31F	0.075 ± 0.034
L31H	0.057 ± 0.04
L31Y	0.047 ± 0.038
L31E	-0.358 ± 0.059

Variant	abundance fitness
L31R	0.091 ± 0.034
L31S	0.046 ± 0.032
L31I	0.01 ± 0.036
L31M	-0.008 ± 0.051
C28E	-0.845 ± 0.075
C28S	-0.68 ± 0.034
C28G	-0.519 ± 0.033
C28W	-0.891 ± 0.058
C28R	-0.816 ± 0.042
C28L	-0.773 ± 0.048
C28A	-0.616 ± 0.049
C28T	-0.749 ± 0.052
C28D	-0.576 ± 0.043
C28H	-0.664 ± 0.047
C28Q	-0.801 ± 0.08
C28V	-0.845 ± 0.04
C28P	-0.787 ± 0.081
C28K	-0.648 ± 0.072
C28F	-0.818 ± 0.052
C28I	-0.954 ± 0.054
C28N	-0.561 ± 0.039
C28Y	-0.714 ± 0.04
C28M	-0.835 ± 0.064
N30D	0.079 ± 0.041

Variant	abundance fitness
N30L	-0.002 ± 0.047
N30F	-0.179 ± 0.045
N30Y	-0.081 ± 0.045
N30G	0.03 ± 0.039
N30H	-0.049 ± 0.065
N30C	0.013 ± 0.044
N30K	0.048 ± 0.095
N30Q	0.028 ± 0.084
N30S	-0.071 ± 0.043
N30I	-0.231 ± 0.041
N30E	-0.103 ± 0.072
N30W	-0.091 ± 0.086
N30T	-0.105 ± 0.058
N30R	-0.01 ± 0.04
N30P	-0.706 ± 0.11
N30V	-0.129 ± 0.039
P39H	-0.347 ± 0.12
P39I	-0.184 ± 0.1
P39V	-0.257 ± 0.049
P39F	-0.308 ± 0.11
P39G	-0.28 ± 0.041
P39R	-0.279 ± 0.038
P39M	-0.248 ± 0.064
P39S	-0.228 ± 0.049

Variant	abundance fitness
P39T	-0.087 ± 0.056
P39L	-0.294 ± 0.045
P39C	0.045 ± 0.09
P39W	-0.363 ± 0.049
P39N	-0.144 ± 0.11
P39Y	-0.295 ± 0.12
P39A	-0.313 ± 0.056
Y32A	-0.128 ± 0.039
Y32W	0.045 ± 0.058
Y32C	-0.207 ± 0.04
Y32E	-0.388 ± 0.068
Y32L	-0.152 ± 0.038
Y32H	-0.254 ± 0.047
Y32M	-0.143 ± 0.055
Y32F	0.003 ± 0.035
Y32G	-0.335 ± 0.035
Y32D	-0.525 ± 0.044
Y32R	-0.308 ± 0.038
Y32Q	-0.3 ± 0.067
Y32T	-0.263 ± 0.044
Y32K	-0.514 ± 0.066
Y32V	-0.159 ± 0.032
Y32P	-0.611 ± 0.056
Y32S	-0.315 ± 0.033

Variant	abundance fitness
Q40K	-0.035 ± 0.061
Q40G	0.001 ± 0.037
Q40T	0.02 ± 0.063
Q40C	0.148 ± 0.062
Q40F	-0.023 ± 0.086
Q40A	-0.002 ± 0.043
Q40M	-0.112 ± 0.064
Q40L	-0.045 ± 0.045
Q40P	-0.009 ± 0.051
Q40E	-0.04 ± 0.049
Q40N	0.051 ± 0.075
Q40V	-0.063 ± 0.041
Q40W	-0.102 ± 0.057
Q40I	0.023 ± 0.098
Q40H	-0.055 ± 0.093
Q40D	-0.07 ± 0.071
Q40Y	-0.264 ± 0.093
D43P	-0.093 ± 0.041
D43E	-0.037 ± 0.043
D43Q	-0.123 ± 0.048
D43W	-0.189 ± 0.041
D43T	-0.08 ± 0.047
D43Y	-0.161 ± 0.067
D43N	0.043 ± 0.058

Variant	abundance fitness
D43C	-0.078 ± 0.06
D43R	-0.25 ± 0.032
D43I	-0.073 ± 0.06
D43L	-0.098 ± 0.034
D43M	-0.056 ± 0.045
D43S	-0.074 ± 0.038
D43H	-0.155 ± 0.071
D43V	-0.057 ± 0.039
D43F	-0.118 ± 0.082
D43A	-0.05 ± 0.039
D43K	-0.163 ± 0.048
E45F	-0.192 ± 0.086
E45I	-0.213 ± 0.1
E45A	-0.087 ± 0.044
E45N	-0.074 ± 0.1
E45T	-0.052 ± 0.054
E45H	-0.134 ± 0.091
E45G	-0.222 ± 0.049
E45R	-0.207 ± 0.042
E45D	0.005 ± 0.12
E45Y	0.005 ± 0.094
E45L	-0.048 ± 0.049
E45M	-0.193 ± 0.068
E45Q	-0.014 ± 0.073

Variant	abundance fitness
E45K	0.073 ± 0.075
E45W	-0.248 ± 0.055
E45V	-0.038 ± 0.048
E45C	-0.111 ± 0.074
E45P	-0.222 ± 0.078
T42P	0.039 ± 0.041
T42M	-0.153 ± 0.051
T42Q	-0.064 ± 0.051
T42W	-0.198 ± 0.048
T42H	-0.089 ± 0.069
T42N	-0.041 ± 0.053
T42C	0.069 ± 0.074
T42E	-0.066 ± 0.046
T42Y	-0.165 ± 0.1
T42D	-0.107 ± 0.071
T42G	0 ± 0.038
T42F	-0.24 ± 0.094
T42A	-0.024 ± 0.04
T42K	-0.01 ± 0.047
T42V	-0.136 ± 0.044
T42I	-0.281 ± 0.058
H37P	-0.645 ± 0.054
H37K	-0.379 ± 0.069
H37W	-0.297 ± 0.058

Variant	abundance fitness
H37I	-0.007 ± 0.035
H37S	-0.088 ± 0.031
H37F	-0.226 ± 0.033
H37C	-0.144 ± 0.034
H37N	-0.144 ± 0.035
H37G	-0.148 ± 0.033
H37M	0.031 ± 0.065
H37A	-0.048 ± 0.035
H37L	-0.145 ± 0.033
H37V	-0.075 ± 0.032
H37E	-0.223 ± 0.08
H37D	-0.002 ± 0.035
H37Y	-0.249 ± 0.036
H37R	-0.315 ± 0.038
H37T	-0.101 ± 0.042
H37Q	-0.176 ± 0.085
H33Q	-0.769 ± 0.084
H33Y	-0.795 ± 0.047
H33A	-0.609 ± 0.039
H33K	-0.542 ± 0.068
H33D	-0.547 ± 0.039
H33G	-0.668 ± 0.037
H33S	-0.721 ± 0.036
H33E	-0.483 ± 0.059

Variant	abundance fitness
H33V	-0.767 ± 0.037
H33N	-0.584 ± 0.04
H33R	-0.638 ± 0.043
H33W	-1.21 ± 0.14
H33L	-0.869 ± 0.044
H33T	-0.85 ± 0.057
H33P	-0.72 ± 0.051
H33C	0.013 ± 0.035
H33I	-0.873 ± 0.047
H33M	-0.882 ± 0.084
V41P	-0.211 ± 0.065
V41I	0.135 ± 0.058
V41D	-0.297 ± 0.083
V41F	-0.175 ± 0.097
V41G	-0.235 ± 0.041
V41N	-0.481 ± 0.096
V41W	-0.314 ± 0.056
V41E	-0.303 ± 0.059
V41C	-0.276 ± 0.081
V41L	-0.011 ± 0.045
V41H	-0.639 ± 0.11
V41Y	-0.346 ± 0.12
V41T	-0.165 ± 0.057
V41S	-0.204 ± 0.05

Variant	abundance fitness
V41R	-0.308 ± 0.038
C36D	-0.802 ± 0.051
C36W	-0.843 ± 0.079
C36H	-0.516 ± 0.046
C36N	-0.615 ± 0.044
C36V	-0.73 ± 0.037
C36Q	-0.672 ± 0.077
C36K	-0.79 ± 0.078
C36E	-0.696 ± 0.066
C36A	-0.671 ± 0.043
C36S	-0.716 ± 0.036
C36T	-0.588 ± 0.046
C36G	-0.606 ± 0.033
C36Y	-0.727 ± 0.043
C36L	-0.763 ± 0.043
C36R	-0.619 ± 0.039
C36F	-0.775 ± 0.045
C36P	-0.585 ± 0.058
C36M	-0.63 ± 0.064
C36I	-0.691 ± 0.039
H29R	-0.053 ± 0.033
H29P	-0.612 ± 0.057
H29T	-0.216 ± 0.042
H29V	-0.438 ± 0.035

Variant	abundance fitness
H29K	0.084 ± 0.073
H29M	-0.097 ± 0.058
H29N	-0.117 ± 0.036
H29C	-0.185 ± 0.037
H29Y	-0.182 ± 0.037
H29W	-0.426 ± 0.066
H29G	-0.016 ± 0.03
H29F	-0.19 ± 0.036
H29L	-0.275 ± 0.039
H29D	-0.26 ± 0.035
R34K	0.229 ± 0.068
R34F	0.016 ± 0.076
R34G	0.066 ± 0.086
R34V	-0.018 ± 0.051
R34Q	0.082 ± 0.066
R34C	-0.17 ± 0.087
R34S	0.009 ± 0.052
R34E	-0.016 ± 0.12
R34A	-0.054 ± 0.062
R34I	-0.019 ± 0.055
R34T	0.005 ± 0.064
R34P	0.067 ± 0.08
R34W	0.143 ± 0.1
R34L	0.037 ± 0.045

Variant	abundance fitness
R34M	0.005 ± 0.057
R34H	-0.083 ± 0.067
R34Y	0.058 ± 0.073
D35W	-0.089 ± 0.044
D35K	-0.087 ± 0.057
D35E	0.107 ± 0.051
D35L	0.06 ± 0.032
D35P	-0.215 ± 0.044
D35A	0.054 ± 0.036
D35Y	-0.074 ± 0.034
D35T	0.023 ± 0.038
D35H	0.071 ± 0.036
D35Q	0.094 ± 0.054
D35C	-0.045 ± 0.033
D35R	-0.029 ± 0.034
D35N	-0.052 ± 0.035
D35I	-0.079 ± 0.035
D35V	-0.083 ± 0.032
D35M	0.042 ± 0.05
D35S	-0.034 ± 0.031
D35G	0.013 ± 0.033
A46L	0.003 ± 0.048
A46G	-0.029 ± 0.038
A46K	0.05 ± 0.062

Variant	abundance fitness
A46N	-0.082 ± 0.08
A46C	-0.149 ± 0.067
A46F	0.07 ± 0.077
A46M	-0.201 ± 0.068
A46D	-0.092 ± 0.072
A46P	-0.202 ± 0.071
A46I	-0.077 ± 0.075
A46H	-0.181 ± 0.072
A46Q	-0.079 ± 0.062
A46E	-0.061 ± 0.053
E27L	-0.105 ± 0.034
E27Q	-0.096 ± 0.083
E27V	-0.184 ± 0.031
E27R	-0.001 ± 0.034
E27K	0.087 ± 0.063
E27G	-0.043 ± 0.031
E27P	-0.67 ± 0.06
E27S	-0.007 ± 0.03
E27T	-0.036 ± 0.039
E27N	-0.009 ± 0.036
E27Y	-0.208 ± 0.034
E27M	-0.103 ± 0.054
